In paper PMC11130202:

Molecular target: Spa2(281-535) (S. cerevisiae (budding yeast)) (UniProt P23201)
Assay: AUC; sedimentation velocity; 20 mM HEPES pH 7.4, 50 mM NaCl, 20 °C; Spa2(281-535) 18 μM, Spa2(1-535) 13 μM, Spa2(1-281) 17 μM

stoichiometry N: 2
Substance: Spa2(281-535) (from UniProt P23201 281-535) (domain or fragment)
